Laboratory results from IntAct's records for PubMed 24929360.

B1: Catenin delta-1 (Mus musculus), P30999 (parent)
chain: MDDSEVESTASILASVKEQEAQFEKLTRALEEERRHVSAQLERVRVSPQDANSLMANGTLTRRHQNGRFVGDADLERQKFSDLKLNGPQDHNHLLYSTIPRMQEPGQIVETYTEEDPEGAMSVVSVETTDDGTTRRTETTVKKVVKTMTTRTVQPVPMGPDGLPVDASAVSNNYIQTLGRDFRKNGNGGPGPYVGQAGTATLPRNFHYPPDGYGRHYEDGYPGGSDNYGSLSRVTRIEERYRPSMEGYRAPSRQDVYGPQPQVRVGGSSVDLHRFHPEPYGLEDDQRSMGYDDLDYGMMSDYGTARRTGTPSDPRRRLRSYEDMIGEEVPPDQYYWAPLAQHERGSLASLDSLRKGMPPPSNWRQPELPEVIAMLGFRLDAVKSNAAAYLQHLCYRNDKVKTDVRKLKGIPILVGLLDHPKKEVHLGACGALKNISFGRDQDNKIAIKNCDGVPALVRLLRKARDMDLTEVITGTLWNLSSHDSIKMEIVDHALHALTDEVIIPHSGWEREPNEDCKPRHIEWESVLTNTAGCLRNVSSERSEARRKLRECDGLVDALIFIVQAEIGQKDSDSKLVENCVCLLRNLSYQVHREIPQAERYQEALPTVANSTGPHAASCFGAKKGKDEWFSRGKKPTEDPANDTVDFPKRTSPARGYELLFQPEVVRIYISLLKESKTPAILEASAGAIQNLCAGRWTYGRYIRSALRQEKALSAIAELLTSEHERVVKAASGALRNLAVDARNKELIGKHAIPNLVKNLPGGQQNSSWNFSEDTVVSILNTINEVIAENLEAAKKLRETQGIEKLVLINKSGNRSEKEVRAAALVLQTIWGYKELRKPLEKEGWKKSDFQVNLNNASRSQSSHSYDDSTLPLIDRNQKSDKKPDREEIPMSNMGSNTKSLDNNYSTLNERGDHNRTLDRSGDLGDMEPLKGAPLMQKI

Variants of: B1
Details: with cadh2_mouse Cdh2, P15116
Sequence of cadh2_mouse Cdh2, P15116 (P15116 whole entry): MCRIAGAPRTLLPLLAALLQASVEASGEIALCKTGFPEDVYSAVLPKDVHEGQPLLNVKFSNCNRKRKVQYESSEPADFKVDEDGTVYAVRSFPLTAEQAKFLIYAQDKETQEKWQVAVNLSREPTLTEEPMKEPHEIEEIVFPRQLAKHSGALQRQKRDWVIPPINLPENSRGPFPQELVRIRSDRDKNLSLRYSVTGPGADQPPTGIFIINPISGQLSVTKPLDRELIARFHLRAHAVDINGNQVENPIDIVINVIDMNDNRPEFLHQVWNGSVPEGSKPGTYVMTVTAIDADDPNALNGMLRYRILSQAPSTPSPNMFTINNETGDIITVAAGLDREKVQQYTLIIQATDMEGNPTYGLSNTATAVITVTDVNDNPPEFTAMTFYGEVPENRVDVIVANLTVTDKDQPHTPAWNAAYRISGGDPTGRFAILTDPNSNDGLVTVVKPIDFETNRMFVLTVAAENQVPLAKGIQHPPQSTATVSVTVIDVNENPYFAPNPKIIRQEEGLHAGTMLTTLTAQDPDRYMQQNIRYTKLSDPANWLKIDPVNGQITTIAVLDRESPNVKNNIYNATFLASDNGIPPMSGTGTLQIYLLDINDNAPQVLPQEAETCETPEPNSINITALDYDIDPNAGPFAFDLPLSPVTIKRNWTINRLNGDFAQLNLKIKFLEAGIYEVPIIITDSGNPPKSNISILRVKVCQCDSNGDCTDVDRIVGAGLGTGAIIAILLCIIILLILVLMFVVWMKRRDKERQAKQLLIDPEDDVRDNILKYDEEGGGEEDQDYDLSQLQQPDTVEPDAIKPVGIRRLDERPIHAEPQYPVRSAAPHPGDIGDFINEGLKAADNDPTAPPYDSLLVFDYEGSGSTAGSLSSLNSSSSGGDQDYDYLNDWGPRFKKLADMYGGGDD

Row | Variant | effect of a mutation on the interaction
1 | T310A | increasing interaction strength
